Key:
[1] = test system: N[C@@H](CCC[C@H](NC(=O)CCC(=O)O)C(=O)O)C(=O)O; test: purified protein; conditions: 50 mM phosphate pH 7.5, 25 °C, two equivalents Zn(II)
[2] = biological target: the molecule itself; test: dynamic light scattering; DynaPro-801, 21°C; 2.0 mg/ml in crystallization buffer (250 mM NaCl, 20 mM HEPES pH 8.0, 1 mM TCEP)
purified protein = substrate: N[C@@H](CCC[C@H](NC(=O)CCC(=O)O)C(=O)O)C(=O)O; test: purified protein; conditions: 50 mM phosphate pH 7.5, 25 °C, two equivalents Zn(II); remark: listed apart in the source

WT-VcDapE (Vibrio cholerae O1 biovar El Tor str. N16961)
Km [1]: 1200 ± 200 µM
kcat [1]: 80 ± 10 s⁻¹

B1: N-succinyl-L,L-diaminopimelic acid desuccinylase (DapE) from Haemophilus influenzae, wild type, full length (enzyme)
chain: MKEKVVSLAQDLIRRPSISPNDEGCQQIIAERLEKLGFQIEWMPFNDTLNLWAKHGTSEPVIAFAGHTDVVPTGDENQWSSPPFSAEIIDGMLYGRGAADMKGSLAAMIVAAEEYVKANPNHKGTIALLITSDEEATAKDGTIHVVETLMARDEKITYCMVGEPSSAKNLGDVVKNGRRGSITGNLYIQGIQGHVAYPHLAENPIHKAALFLQELTTYQWDKGNEFFPPTSLQIANIHAGTGSNNVIPAELYIQFNLRYCTEVTDEIIKQKVAEMLEKHNLKYRIEWNLSGKPFLTKPGKLLDSITSAIEETIGITPKAETGGGTSDGRFIALMGAEVVEFGPLNSTIHKVNECVSVEDLGKCGEIYHKMLVNLLDS
notes: also called HiDapE; WT-HiDapE; source: E. coli BL21(DE3) derivative with pMAGIC; purification of the wild type not described
binding result [2]: binds
Km (purified protein): 800 ± 100 µM
kcat (purified protein): 114 ± 10 s⁻¹

Reference: paper PMC4012986, “The Dimerization Domain in DapE Enzymes Is required for Catalysis” (PLoS ONE, 2014)
